Measured values from paper PMC4749557 (2015).

T1: recombinant Mtgr1 NHR1 domain (residues 98–206) (mouse, UniProt O70374 98-206, H200K, biotin (biotin-acceptor tag))
T1 sequence: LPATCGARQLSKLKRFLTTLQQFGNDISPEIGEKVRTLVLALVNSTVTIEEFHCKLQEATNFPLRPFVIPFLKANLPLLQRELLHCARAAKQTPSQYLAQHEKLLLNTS

B1: human PRDM14 (residues 238–487) (domain or fragment)
chain: LPQTLDKDSLQLPEGLCLMQTVFGEVPHFGVFCSSFIAKGVRFGPFQGKVVNASEVKTYGDNSVMWEIFEDGHLSHFIDGKGGTGNWMSYVNCARFPKEQNLVAVQCQGHIFYESCKEIHQNQELLVWYGDCYEKFLDIPVSLQVTEPGKQPSGPSEESAEGYRCERCGKVFTYKYYRDKHLKYTPCVDKGDRKFPCSLCKRSFEKRDRLRIHILHVHEKHRPHKCSTCGKCFSQSSSLNKHMRVHSGDR
modifications: biotin (biotin-acceptor tag)
B2: Mb(hPRDM14_S4), purified monobody (designed binder)
chain: GSVSSVPTKLEVVAATPTSLLISWDAPAVTVDLYFITYGETGGNSPVQKFTVPGSKSTATISGLKPGVDYTITVYAQYYYRGWYVGSPISINYRT
modifications: biotin
B3: recombinant Prdm14 pre-SET+SET domains (residues 184–373) (domain or fragment)
chain: GFNFTEEELSFVLYGAIASPEHPTDLQHAISGILVPTESSGSNHLHKTLDKDSLQLPEGLCLMQTSFGDVPHFGVFCSDFIAKGVRFGPFRGRVVNASEVKAHRDNSRMWEIFEDGHLSHFIDGKGSGNWMSYVNCARFPKEQNLLAVQHQGQIFYESCRDIQRNQELLVWYGNGYEKFLGVPMNLRVTE
modifications: biotin (biotin-acceptor tag)

Key:
[1] = target: Mb(hPRDM14_S14), purified monobody (biotin)
[2] = target: B1
[3] = target: T1, recombinant Mtgr1 NHR1 domain (residues …); assay: Prdm14 immobilized on beads
[4] = target: T1, recombinant Mtgr1 NHR1 domain (residues …); assay: Mtgr1 immobilized on beads

Binder | Kd [1] [nM] | Kd [2] [nM] | Kd [3] [nM] | Kd [4] [nM]
B1 | 2.8 | – | – | –
B2 | – | 38 | – | –
B3 | 1.7 | – | 7.1 | 11
